In the domain aggregation screens of Martell et al. (2025):

Assay: soluble fraction after stress (log2 fold change); higher = more stays soluble; pooled small domains, quantitative proteomics
Settings: stress: 50 degC
Outline: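 Quantitative proteomics served as the high-throughput read-out for pooled custom libraries of small protein domains. Each was stressed at 50°C. Aggregation propensity is expressed as the base-two log fold change in soluble protein after stress. A higher value means a larger share of the protein remains in solution.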

Sequence | soluble fraction (log2)
HMQVAPQVERLLRVMGNETLSLSDIMGRMGLSDKKNFRESYLVPALRSAVIEMTIPDKPNSSLQKYRRIHE | -0.176
HMNSKSDDELLSKTTSLLIHAAKIDENYTDKEKEIIKKTLIQLGVKESKADQIMLTAEINEE | ≥ 0.62
HMTNSTGWSKSGGTQVTIREGETIYNLSRRYGVPAKSIMEANGIADATAVRAGQRISIPTYSY | 0.0505
HMKDLQAISERMEEIISFAKANDNEISLFIVQDIIKNKKTGIDEDLLNMALYQIKEQGIKVLPA | -0.0793
HMDRKARRKYIEQVVNDRKIETQEELLKLLTEAGFETTQATISRDIHALNIVKANDGDGHTHYVQLH | 0.144
HMKKDRKKMLKEGIVLFEKILRGMELSPTSEPLKKVLTSFNIQNKEDLYVKLGAGVISSEEVIKELKKK | 0.183
HMTESLVITVDPALHGLRLDRGLADALPDRSRSEVQRWIKEGRVQLHGAPAKPSLKLAAGDIVTIALPEE | 0.393
HMTGSLRIKHKTYYMLFSWKDESGQWRQKSESTGIPERGGKRKAQEMLNTRLEELQLQSTASL | -3.75
HMNERIKSLRKALGLTQQEFADKLGISRGNIGAYEVGKNAPSDAVISLIVRIFNTNENWLRTGEGEM | -0.145
HMDRASGEEEALKEAEDAISRVWEFDGPVELNPQNSYLRRLQHELASRYNVKSVSIGQEPNRRVVYYK | -0.0181
HMDKEVMEAVLRILYDDDFNPDQRDAILYFFVQELDQRTISEITGAKIGTVKKRIHDGLKKLRQKLAKEDL | -1.36
HMQDVKRYLVNSNQLNVRTGPGKEFEISESLNKGDAVTLLHKESNGWWEVITSTGQGYVYSSMLTKDPW | -0.525
HMGELTSILVATKQIEPGETLSSSNTQVKSWISDLIPEGAITNPESVMGRTVSSVIGVGMPVVSLHLR | 0.0954
HMTLSAPMPGTVLKIHVKEGQRVRKGQTLVVLEAMKMEHRIQAPKAGEVTNLHFSEGDRVDMGEILVEIG | 0.0894
HMLKLYILTDGKNYVMDDPIHPGRVMYSTSPVNAKKFTFKQARALLNNKSKKLSWIRSFNMVDDSSGEKI | -0.692
HMNQILDFTREVKNLPEQDKIKIVEALWSIIYSNKDADIYETNLMRRLAGLLYIDNKTMGDIKEKIKQNL | -0.601
HMEPLPDIPRGTRVSHQTAPADGDMPERRETGWTMTEPIRAQDGLAYVGVSVYGRGVVMLPVNSLSII | -0.319
HMNVLGQTAIVRSLRLDATFGEVLLADGGAGLIFKARTHGDETFKKGDRVVLLEYLKDQHAYRVISETDFL | -1.94
HMHRNLSFEEEKEFLSAYTKQAEAGQIVDLNEMKAAYIEKVGHSIGGSQIYRMLERHGWRKVM | -0.312
HMSQTELIIVEEEMDGERLDAFLAEQVEQLSRSAVKNLINEGQVLVNGAKQKASYHVREGDEISIEIPEPQ | 0.0254
HMQEVKVRLKPDYLGEVLIKVISDKGELKAELFVSNSQVRSLLRAYAVEFQNQIRDQGYNFSEINVYR | -0.551
HMIADDLKSLEGVDQDMLRDLAEAGINTRDDLAELAIDELIEITGVSTEEAEKVIMAARAHWFEEES | 0.463
HMEGFKSVYFLTTPSGAEISDRSVGDIISKTPSLVSAQEGTEFEFNLKGYQPSFYMINKRSPDRVFVELIP | -0.535
HMLQEFTLELATAVVQEFRDQPGALINALHKLQETFGYVDEAAMPVLARLFNLSRAEVHGVASFYHDFRRS | -1.49
HMGAWQQTGFFRNRENAESLAEVLRQRGFSPVVREDTRPSGTVYYAVLVPDDGTTAARLKDAGIDSYPV | 0.0695

Sequence | soluble fraction (log2)
HMADIGRMKELIDILNRASAVYYQGKDEIMSNFEYDKLYDELVSLEKESGLVLAGSPTQKVGY | 0.153
HMSQLETEEAKRIVLKDLLRLYNNYNIIELEEDEFDRFITYLNMPYDFLQKTSDYDLAVSIKRMYASY | -2.3
HMETAADLLAAAKENPARFGILASEGRFGLGYMNDDLLDPDNLVAISREEADDLRGLGVYFHNLD | -0.0842
HMDPLGGFTKGDVDMDGRVAVNDAVMVLKNAIKLMELDTQQLMLADADNDGKITVNDAVMILKKAIKLID | -0.111
HMVDKTMYDRYAVDDYVRVIDGPLVGTEGRIIELDRETGNVKIEAVFFGRVTTADINFALIEKVD | 0.0531
HMGPLYARVKAIVLARIMGGDWPPGTALPAEMELARALGVSQGTVRKALDALTAEQVVVRRQGSGTYVAE | -1.04
HMHAPKIIVLTINPDKIRDVIGPGGKMIKSIVAATGVKMDVEDDGKIHISSSDQKAADEAIRMINEITAEA | 0.0184
HMSNEIIFNQKSITRFLMNPENNSPMIYPLELGHEMKVIKKNNDWLNVTDEKTGLNGWVISDDFGLTKPEG | -0.212
HMHLTEAPLIKITYFEADQKKSGGQYITIINHLKKINEYENLLVLENGVKINIDDIYELESV | -0.132
HMTISIAEQIFEQLEREILSGAYPRGELLTETKLSEKLGVSRTPIREALRRLDQEHIIKMTTKGAFVLGI | -2.04
HMDFDQELFDKIVEATMDEARAAMDTDDKNVREERWNKLIEHWHELFLEDYPEMDKYLEEITYKFQKNPAT | -0.302
HMDKIYVYTTRGQVIELPRGSTAIDFAYKIQTDIGNMIIAAIVNDKLVDANYVLHNKDRVKIVTS | -1.92
HMFDVNSMIAANIVAILKKQNRKQIDLAGALQTNKQTISKMLNGSRMINAIELKRIAEFLGVKMEELTKL | -0.635
HMVDIVLDILKIVAEKQPGNQFSQSILMQYQERGGLSKKQLEGLYGKAKRIPEIPQNKLATLEAIILR | -1.41
HMGNKDAQLVHLAKMNEIQIELMKTGRGYMVTDQNVYNLAKKMGENMGFKHPDLFLTDPAKV | -0.0553
HMPISQGATVKHNANMRKGASTKYKVTGVLQEGEEVKILSQSNGWYKIQNSDNEKGWTYNTHINASDK | 0.0951
HMNIQGIFGRNLKQKRLEKGMTQEQLAEKAGVSTDTVKRYESGKYDGIRLDMAWYMANALDTPLQALLPP | 0.367
HMNVNSMIGKEGRVIEDIDNFNETGRIIVDGMEWTARAVNEQSITSGQKVVIREIQGVKAMVVPM | 0.187
HMADVPSTIFEAYRILGLNPEAPPVAVKKVVDALRMSWHPDHARSEPDRRHREERIKQINAAWDLLKGV | 0.148
HMSSEPYISLPRGAAHDAYPLSTKAVAAQLGMSEVWLANLRSKGKGPRYVRVGTRVFYSPEDVAQWRRAT | -0.889
HMDGTEVTTEPPGAQVEYEGKQFGPTPARIPGLVAGKSLHITLPGYLEVKPKIKAVPKDGEPLSFTLTAI | 0.0823
HMRLADHVVEKLLALVQDRGLQPGQKLPAERQLAEELGVSRTSVREAIQKLTSQGVLSARRGDGTYLQS | 0.0556
HMKEPQLGPVRKWSDQTGNFGIEAQFVKREGDNILLKRADQRTISIPLEKLSDADQEHLKQEEQKQAME | -0.138
HMAYLTVPAVIAKDTKKSIQLLESKGFEVVIQDSIYTDTLARGTVIKQLPDPNATVKINRTVYLTVNRYTP | -2.1
HMGGEEPYGSGSLRLAAGAVVPSGYTIKGNEDSMLYHTTESPWYKQTIAEVWFNAESAAQRAGFTRWDAKD | -0.114

Sequence | soluble fraction (log2)
HMETALYVEDLDRAVRFYESVMGLNTMSRGVRLVALDAGEGTVLLLFLRGATTSGASFEGGWIPPH | -0.0244
HMEEDDGVDFHERLTELNDEQVYYLINTEPAKVIALALDQLGQKRKINIMNRFNPDMKHSIIMELGKL | -0.516
HMLFSEKLKQAMQDLHLNQIQVVGLTGKSKGSISQYISGKQVPSEATQRDIAISLGLEENYFSKK | 0.282
HMTGRHEEAIQELKRTLELHPQKPKIFLLLGVSYLRLNNLKKAVEAFNTVLLLQPKNQKALTMLKEIKKR | 0.0384
HMSRLLERARDLMAKPGAWLSAEGGAYALRLSPDRRSRISLTLTETEFRALIDQPGLRVRPGGGWSGRA | -3
HMDFNNQLKRIRESNGLTQEQLAKILNVSRQSISSWEVGRNFPDLEMIVIISKEFNISLDQLIMG | -2.82
HMSTEEYDRGYEQGLEEAAKADDAWVANLIKIYSQNTPESMPETMKGRLDAFLYEQQRRAQSVPEM | 0.307
HMKIATIELVKEAVKSKLGKFTKRDIMELVPSVGKTTIENMLKQLIGEGYIERHGKGRATFYVK | -0.56
HMRQYTPEQLETAVLVLEEVRQGRRLDRALRSHPMPDGRLIAKHVLVAAYRKLVAEGTWKEDPEFLSRIRM | -0.237
HMGLQEADKQDRIARMKELISFLNEAAKAYYQEGREIVSNLEYDKAYDALLSLEKESGVVLSGSPSQNVG | 0.147
HMDTMQQESMDTKSILATALMELTSRKNFAKITIADITHVSGFNRQTFYYHFRDKYELLSWIY | 0.0516
HMQAKDVEVPDYVGKSFVSIKENNPNDFKFEVKSEYDESKEMGVILDQEPKGGSMKVKSGSTITVTV | -0.0106
HMNLMQIHVARPPNQLGVFSQEEVAAGLQSGRFLPTDQAWRDGMSAWTPLSQWAEFSSVVAAV | 0.083
HMTMTKELGQRIRAERTARKMTQEELAERADLHPTYIGQVERGEKSLTIASLEKIVEGLGISFSDLFEN | -0.0406
HMASRTLSYSEFMSRVDSGDVTSVTLDGERIIMRTSNNQEFLSIKPEGEDISERLLAKNIEVRAEAQQ | -0.284
HMITVEAPMPGKVLSVNVKAGDKVEAGDVLLILEAMKMQNEIMAPEDGTVSDVRVSAGDTVATGDVMVV | 0.0409
HMLSYIELTVDNTSKASYIMTDKMKINNFKIIGNNTIRVYENKVSPQDISRTLSMNNVSIEALGRKS | -1.03
HMKETKVIHVHLIFKKTSRFFGSISAIYSEFTAEEIGITEETLRHKGLSDGVSFATKKAIIQQGVLIR | -1.67
HMGGSVYTVQKGDTLWSIAKEQLGSPLRYAEIYDLNKDVIEEAARGRGKKDSSNGHWLVVGTSLQIPEAT | 0.42
HMGKGGVAYLLESEFGIELPKDMQREFGPIANDIVDSLGREVSGAELKSMFWKEYIERETPFLLLLVTGQL | 0.457
HMTSSSGTITADWLNVRSGAGTNFSRLGSIAGGTRLTVISVHGEWYKITASFEGEIRTGYVHSQYVQMDGE | -3.96
HMNAVDLLSPQEQRIFELIGEGMSNRQIADVMYLAEKTVKNYVSNVLMKLGMERRTEAAALAARLDERQK | -0.114
HMLTLEDMTRINSIISPRIKKGQSLYHIAKNNGDELNISESTLRRLVMTGEMDAGIIDLPQAVK | -0.138
HMPKLSNNHMAVWQAIRSRTAKGEPSTRAVIRDDLKAAGMDTSKHFSRWLTKLIDLGMVVKDGENLSIR | -0.16
HMSSPVIQINTRNDGWIIKLLQPAVEKDVLEGYLADVGLKLQSQMMEKILAAPAGTEFHIKRGSNILTE | 0.00933
